According to US20260117244A1, “INHIBITORY RNA FOR THE CONTROL OF PHYTOPATHOGENS” (priority 2021, published 2026):

B1: 140 (nucleic acid, listed as Golovinomyces orontii)
chain: ATGCAATTCACTCAACTTCTCATCTTAGCCTTCGTCGCTTGCGTGGCTGCTACACCATCAGGATTGAACTTTTACGCGCGAAGAACTGACGGTGGAGACGACGAATCACCACAGACATGTACTCAGGCCCTACAAGCTATTCCCAAGTGCGCTCTGAGTTGCATCACACAACCCCCAATCGACGCCGGTTGCAAATCAGCTGCTGACTTCGCTTGCACCTGTGAGAAAAAGACCCAAAAACAAATTACAAAGGCAGAAACTCCTTGTGTTCTCAAGGCTTGCGGACTAAAAGAGGCACTTGCTGCTTCTAAGGCTGGAAAAGCTGTATGTGAGGCTTGCAACACATCCCCAAGCGACCCATCCGACGGTCACGGTGACGACGGAGATGACGATTCATACGATAGCTCTGATTCTGAATAA
modifications: listed as DNA
B2: 146 (nucleic acid, listed as Golovinomyces orontii)
chain: ATGGCTCAATCCCCGGACAGTAAGGTAGAGAAAGTCTTTACGACAAATCACCTCGGAATTGGCAGGCTCCAAGGAAAGAACGCAATTGTGACCGGAGCAGCAGGTGGTATCGGCTTGGAAACATGCATTTTATTCGCCAGAGAAGGTGCCAATGTTCTTTTGGCCGACATTTCAGCTCCAGCCCTAGAAAAAGCATATGCCAAGATTGCTCAACTTGTACCTTCGGCTCGCAAGGTCGAGAAAATGCTATGTGATGTTTCCAAGGAGGGAGACGTCAAAGCTATGGTTGACCATGTTGATTCATGGGGTGGTGTTGACATTATTTTTAACAATGCGGGCATAATGCATGCTGATGATGCTGATGCAGTTGACACCCCTGAGAAGATTTGGGATCTCACTCAGGCTATCAACGTGAAAGGTGTCTGGTTCGGCTGCAAACATGCAGTCATCTCATTTCGAAAGCATAAAAAGTCAAAGGGCTGTGTCATCAATACAGCCTCTGTTGTTGCTTTGGTGGGATCTGCAACTCCACAACTTGCCTACACCGCGAGTAAAGGAGCTGTTCTAGCTCTAACGCGGGAGCTTGCAATTGTACATGCACGCGAGGCGCCGTTGAACACTCCCTTACTTCAGGATTGGCTTGGAGATGACCAGCCTAAGCGACTTCGTCGGGAAATTCATTTTCCATGTGGCCGCTTCGGCGAAGCTGTTGAACAAGCTCGTGCTGTTCTTTTCTTAGCTTCCGATGACGCCAATTTCATTAATGGGCAGGAATTTGTTGTCGATGGCGGAATGACTAAAGCATATGTGACTCCAGAAGGTCCCCCGACCGAGGCGCCTATAAATAACTCATTACTCTCTGAGCCAATCGATAATTTTAAGACCACTAACTCATCAGACATGGGAGTTTGA
modifications: listed as DNA
B3: 167 (nucleic acid, listed as Golovinomyces orontii)
chain: ATGCTTCTAACTAAGATTCACACCGCACCAGAACTAGACTCATTTACAGCACTCGAAGATCATCAATCAAAGACTCCCGACAAATTTTATGAAACGAAACCTGTCCTATACTTTCATGACAATAATGCCAGAGCTCTTATCGTCAAAAGTCAGCTTGTCAAATTACCCATCTGTGAATTAAATTCTTCGGAAAATGAACCTGAATCAAGCCCAAAAATAGCTAATGTCGAAGTGTTTGTCAATTCCCAGAAATTGATTATATTTAACCCTGTCGAATGCATTGGCTACGCTATTCCCTACTCAGCGATTACTCTTCATGCTATCCAGAGATTAAAAGATCCAATAGATTCATATCTGGAAATACAAGGACTCTACATGCAAATAAATATATCAGATTGCAGTGGTGACGAACAACAAGATGAAGATTCGACCTATGTAGATCTAACTCTCATACCATCACTCAACTCTGATACCATAACTAAACCAAGAATCCAAACACTCTACGAGGCGGTCTCTGCCTGTTCCGACTTAAATCCTGACTTGAATCCGGAAGACGATGGGATAACTGAAGATGTAGGTGAAGAATCTAGGATAATATTTGAAGGCACTGATGGTCTTCCTGGTGTTTTCAACGGCGGATCAGATGGCAACCTCCCACCGCCGTTTCCTGGTAGTGGGGGATGGATAACAGCTGAGAATATGTCTCAATTTTTAGACGAAGAAGGTAATTGGATTGGGAAAAGCGATAACGGTGAGGATTCAATGGTTATCGGATAA
modifications: listed as DNA
B4: 169 (nucleic acid, listed as Golovinomyces orontii)
chain: ATGGATATGGATATGAATATGAGCACAGGAATGAATGCAAGTCCAATAATCGGAGGCAACGAAGTCCATTCACATCCAATGGATATGGGAAGGGATATGTCGATGACTTTTTTTAATGGCATGACAACTAAACTCTATACCTCGACGTGGGCACCAAAAAGTTTAGGCACTTATATAGCGACTTGTTTATTTCTCATCGCTTTATCCAGCATATCTAGGTTTCTATTAGCCGCCAAGTTATGGCTAGAAACAACTTGGATGAACGCTGAGCTCAATCGAAAATATGTTACGGCTGCTGGAAAAGTACCAATCTCAGAACAGATTTCAATGAAGTCTGAAGCTCGGCAAATGGTACTATCTGGAAATGGTTTTGAAGAAGATGTGATAGTCGTTCAAAAGAAAGGATTCCGTGTACGGCCCTGGAGTATTACTGTGGATCCAATCCGAGCGCTGATAGACACCACAATTATGGCAGTGGGATTATTAATAATGCTGGCCGTTATGACAATGAATATTGGGTATTTTATATCGGTTTTGATAGGCACATTTATTGGCAGCCTAGTTGTCGGGCGTTATTCTCCTGAATAA
modifications: listed as DNA
B5: 123 (nucleic acid, listed as Golovinomyces orontii)
chain: ATGTTGTGCTTCATTTCCATCTTCACAACAGCTCTCCTAATCTCTCCCTCCCTAGGAGTTAATTCAGCTCAGAACGGCGAAACTCCCGATGACGATTCATTAGGTTCTACGAAACACATGAACTTTGGCTCTGGTCTCTCTGAATTCAATGCTCATGAAGATATGTATGTTCCTGCCATGGATCTGAATGGGTTTAGAATAAAGCGACGACATTTTCAAAATGAAGGCTATTACTGCAGCAAATCGCGCAATCACCTCGAATTTACAAATCAATCTTTCGTGAAGAATGAAGCTAAGAAGGCATGCAAGGGTCTTGAAAGGTCAAAACACGAACACAAACACGAACATGAACATGAGCACGAAGATAAACATGAATATAAAGAATATGAAGAAGAAGAAGAAGAAGAAGAAGAAGAAGAAGAAGAAGAAAATAAAATAAAAAAAGGAAAGAAAGGAAAGAAACATTCCGATTACCCTCATCCATACAATGCAGTCAAATATGTAAAATATTCCCCACCATACTTCGAACACCGAATCCATGATGTGAAGAAAAATAAATCAGGTCTGAGCGTCATCATAGATATCGACTGTCATATTGTTGATGTTGTTGCTCTCAACCAAGATAAACGATACCATCAATGTGCCCGTGCATGA
modifications: listed as DNA
B6: 124 (nucleic acid, listed as Golovinomyces orontii)
chain: ATGTTCCTCAGAGCTTCGTTGACCTTCTGGGCTCTCTTGGCCACAGAGATAAGTCTGTCCACGACAGCCTCCGTTAGACGACTGGAGAATCGCGAGGTTGTTGACGATATTAATGACAATGGAATCATGATTGAGTGGGCAAGATGCAAAGGTAGACACTACGATAAAGATGAAATATATGAAACGCTCAAACAAGCTTGTGAGACGAAAAATTCATCTACCATTTTTGAAAAAGCCGTCAATCTTCGTCCACATATCCCATCGTCATCAGAGAAGTATCATCATGAGATCAACCCTCCCTACTACGCGTACTCTCTGCATGATACCGTATTCAAAGATAAACTACATCCAATCGATGTTATCGTGATGAACGATGAATGTAAGCTGGCTGGTGTACTCATGGAGACCACCAAGATCAGCTGCAACGACGACACGTGCGGCTCCGAACCCCGGTACAAAGATTGTGAGATCCGATTAACGAAAACCGCTCCGACGTCGACAGAGACGACTCAGGTTGCGGAATTGTCTTGA
modifications: listed as DNA
B7: 179 (nucleic acid, listed as Golovinomyces orontii)
chain: ATGCAGATCTCACGCATCACATTTATCTCTTTCTTCATCGCCCTTGTCGCGGCTCATCCAACTCTTAATGAACGACAAACAATTACCATCCCAAAAATTCCTGAAGTTCCAGCCGTCCCCGAAGTTCCCGCTGTTCCTGAAGTACAAAAGCGTCAACAGACGATAACTGTTCCCACGATCCCCACGATTCCTACCGTGCCAGATGTTCCTGCTGACACACGAATAAAGCTGTCCACAAACTCAATGGCTACGCCAAACTCTATGCTGGACAAGAGACCTGAAGTGTGGCATATCCATGATAACCGGATAACTGGTCGGAAAATATTCAAAGCTAAATGA
modifications: listed as DNA
B8: 122 (nucleic acid, listed as Golovinomyces orontii)
chain: ATGAAAGCCAAACACCTAATTCTGACCATAGCGCTTGCGGCTACTGCGAGGGCAGAAGATCAATATGATGCTTCTGAACTACCACAGTTGAAACATCAGCAGTTAAGAATACCTTTTCCGACAGCTATTGCTGAATCGAAGTGCAGCTGTGCCACTGAATATATAACATCTACAGGCGAGGGTTTTCTTTATACTGCTGATGTATCATCAATTACCAAAAATTTTGATCCGCAACCGACTCACGAGTATCCTCTAATCGTTGAACCATCCATATCCGTTAATTGTCCGCCCCCGTCCACCATTACTGTAACCGAGACAAAATATATTACTTTGATGCCTGATCTAGCACCATCTGATCCTGCTAGTCCGATCTTAGAACCGCAAAATACCGATGCCGGACCAAACTCTCCATTAAATCCCTCTAGCCCGATATTAGATCACCCAAATACTGATACTGGGCCGCCTTCTCCACCTGCTCCAGTCGTTTCTAACATTGAGATATCTCCGTCAGCCCCAGACCCCAGCCCTGAAGTATCTTCAAAACCACATACTGGCACACTGGGATCTAACAATGGTCTGTGGGCAATCACTTTTTCTCCATTTAATGATGATGGAACGTGCAAAGGTGAGACTGCTGTTTGGGAAGATGTGCGCTTGATTCGTAGCGCTGGCTTCAAGGCAATTCGTGTCTATGGTACTGAATGTTCGGGAATTGAACACGTCAGTTCTGCCGCCAGTTTTCACGGACTAAAACTTATTATCGGTATATTTATCAGCGAATCTGGTTGTTCTGGTGCTGCGGAGCAAGTAACTCATATCACAAAATGGGCCAAATGGGAAATTGTCGAGCTAATTGTGATTGGAAACGAAGCCCTATTTAATGGCCATACTTCTCCAGATGAGCTCGCAAGATTTATTAGCTCAACCAGAAATACACTACGATCCTCTGGTTACAATGGACCTTGCACAACAGCTGAGCCTCTCAATATCTGGCAGCAAAGCTCGGATGTATTGTGTGGTGCAGTTGATATCGTTGGATGTAACATTCATCCATTTTTCAATCCAGAAGTTGACGCTAGTCATGCCGGACCTTTCGTCAAGAGTCAGCTCGAAATTGTTAATAACATTTGTCCAAGCAAATATGGTATCAACCTCGAATGTGGATGGCCTTCGGCTGGCGAGTGCAACGGCAAGGCTTGTCCTGGTGAGTCGGAGCAAAAAATTGCTGTGGAAAGCATTCAGTCATTTGCTGGCAACGTGTCGGTAATGTTTACATACACCAACGATAAATGGAAAGACCCAGGCCCCCTCAAGATTGAGCAGAGTTTCGGATTAATTAAGCTCCTGAATAGCCACTAG
modifications: listed as DNA

tested on: G. orontii MGH1; assay: Spray-induced gene silencing (SIGS), G. orontii spore production on A. thaliana (whole plant and detached leaf assays); type: in vivo, Golovinomyces orontii; conditions: topical dsRNA against G. orontii target (Gor Seq ID); detached leaf assay; n>=3

Point of comparison: B2, “G. orontii Spore Production on Arabidopsis, Detached Leaf Assay, % reduction” value 63%. Against it:
- B1 — lower, 37%
- B3 — lower, 39%
- B4 — lower, 54%
- B5 — lower, 38%

same assay, conditions: topical dsRNA against G. orontii target (Gor Seq ID); whole plant assay; n>=3

Point of comparison: B8, “G. orontii Spore Production on Arabidopsis, Whole Plant Assay, % reduction” value 33%. Against it:
- B6 — the same, 33%
- B1 — higher, 60%
- B2 — higher, 42%
- B5 — lower, 32%
- B7 — higher, 41%
